Experimental findings from the supplement of paper PMC7125110 are described below.

± gives the standard error. Fewer inactive variants are shown than the library holds.

To fix the notation:
B1: glmS ribozyme (parent)
chain: AUAAAAGCGCCAGAACUACAGAAAUGUAGUUGACGAGGAGGAGGUUUAUCGAAUUUUCGGCGGAUGCCUCCAAA

Details in all cases: with glucosamine-6-phosphate
Data set [1] covers variants of B1. In words: self-cleavage kobs at 40 uM GlcN6P; higher = faster cleavage; RNA array. The method, boiled down:
(§1)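 In situ transcription by E. coli RNA polymerase produced barcoded ribozyme variants on sequenced MiSeq chips, and a hybridised Cy3 probe tracked them at 37 °C. Glucosamine-6-phosphate was flowed in at 40 μM to 10 mM in HEPES/KCl/Mg(OAc)2 buffer. kcat and KM were taken from weighted Michaelis–Menten fits of kobs values from exponential decay fits.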

Variants of B1 are the subject of data set [2]. Nature of the data set: self-cleavage kobs at 640 uM GlcN6P; higher = faster cleavage; RNA array. The method, boiled down:
as §1

Variants of B1 are the subject of data set [3]. In words: self-cleavage kobs at 2500 uM GlcN6P; higher = faster cleavage; RNA array. The method, boiled down: as §1
In data set [4] the parent is B1. Nature of the data set: self-cleavage kobs at 10000 uM GlcN6P; higher = faster cleavage; RNA array. Put shortly:
as §1

Data set [5] covers variants of B1. In words: self-cleavage kobs at 160 uM GlcN6P; higher = faster cleavage; RNA array. Put shortly:
as §1

With AUAAAAGCGCCAGAACUACAGAAAUGUAGUUGACGAGCAGGAGGUUUAUCGAAUUUUUGGCGGAUGCCUCCAAA [G38C C58U], the “self-cleavage kobs at 40 uM GlcN6P” value in data set [1] was less than 1e-05 s⁻¹. In data set [2], the “self-cleavage kobs at 640 uM GlcN6P” value was less than 1e-05 s⁻¹. Also, the “self-cleavage kobs at 2500 uM GlcN6P” value in data set [3] is less than 1e-05 s⁻¹. The “self-cleavage kobs at 10000 uM GlcN6P” value in data set [4] is less than 1e-05 s⁻¹.
Take AUAAAAGCGCCAGAACUACAGAAAUGUAGUGGACGGGGAGGAGGUUUAUCGAAUUUUCGGCGGAUGCCACCAAA [U31G A36G U69A]: the “self-cleavage kobs at 40 uM GlcN6P” value in data set [1] was less than 1e-05 s⁻¹. The “self-cleavage kobs at 10000 uM GlcN6P” value in data set [4] was less than 1e-05 s⁻¹.
Take AUAAAAGCGCCAGAACUACAGAAAUGUAGUUGACGAGGAGGAGAUUUAUCGAAUUUUCGGCGGAUGCCGCCAAA [G44A U69G]: the “self-cleavage kobs at 40 uM GlcN6P” value in data set [1] is less than 1e-05 s⁻¹. The “self-cleavage kobs at 640 uM GlcN6P” value in data set [2] is less than 1e-05 s⁻¹. Further, the “self-cleavage kobs at 2500 uM GlcN6P” value in data set [3] was less than 1e-05 s⁻¹. In addition, the “self-cleavage kobs at 10000 uM GlcN6P” value in data set [4] was less than 1e-05 s⁻¹.
For AUAAAAGCGCGAGAAGUACAGAAAUGUAGUUGACGAGGAGGAGGUUUAUCGAAUUUUCGGCGGAUGCCUCCAAA [C11G C16G], in data set [1], the “self-cleavage kobs at 40 uM GlcN6P” value is less than 1e-05 s⁻¹. For the same variant, the “self-cleavage kobs at 160 uM GlcN6P” value in data set [5] is less than 1e-05 s⁻¹. Further, the “self-cleavage kobs at 2500 uM GlcN6P” value in data set [3] was less than 1e-05 s⁻¹. Moreover, the “self-cleavage kobs at 10000 uM GlcN6P” value in data set [4] was less than 1e-05 s⁻¹.
Regarding AUAAAAGCGCCAGAAGUACAGAAAUGUAGUUGACGAGGAGGAGGUUUAUCGAAUUUUCGGCGAAUGCCUCCAAA [C16G G63A], the “self-cleavage kobs at 40 uM GlcN6P” value in data set [1] is less than 1e-05 s⁻¹. Moreover, the “self-cleavage kobs at 10000 uM GlcN6P” value in data set [4] was less than 1e-05 s⁻¹.
Regarding AUAAAAGCGCCAGAACUACAGAAAUGUAGAUGACGAGGAGGGGGUUUAUCGAAUUUUCGGCGGAUGCCUCCAAA [U30A A42G], the “self-cleavage kobs at 40 uM GlcN6P” value in data set [1] turned out to be 0.000294 ± 7.3e-05 s⁻¹. For the same variant, the “self-cleavage kobs at 640 uM GlcN6P” value in data set [2] stood at 0.0017 ± 0.00047 s⁻¹. The “self-cleavage kobs at 10000 uM GlcN6P” value in data set [4] was 0.0172 ± 0.0059 s⁻¹.
For AUAAAAGCGCCAGAACUACAGAAAUGUAGUUGACGAGGAGGAGGUUUAUCGAAGUUUCGGCGGAGGGCUCCAAA [U54G U65G C67G], in data set [1], the “self-cleavage kobs at 40 uM GlcN6P” value was determined as 3.01e-05 ± 1.5e-05 s⁻¹. In addition, the “self-cleavage kobs at 10000 uM GlcN6P” value in data set [4] stood at 0.00213 ± 0.00029 s⁻¹.
As for AUAAAAGCGCCAGAACUACAGAAAUGUAGUUGAGGAGGAGGAGGUUUAUCGAAUUUUUGGCGGAUGCCUCCAAA [C34G C58U], the “self-cleavage kobs at 40 uM GlcN6P” value in data set [1] was less than 1e-05 s⁻¹. Besides, in data set [2], the “self-cleavage kobs at 640 uM GlcN6P” value is less than 1e-05 s⁻¹. The “self-cleavage kobs at 2500 uM GlcN6P” value in data set [3] was less than 1e-05 s⁻¹. For the same variant, in data set [4], the “self-cleavage kobs at 10000 uM GlcN6P” value was less than 1e-05 s⁻¹.
On to AUAAAAGCGCCAGAACUACAGAAAUGUAGUUGACGAGGAGGAGGUUUAUCGAUUUUUCGGCGGAUGCCUCAAAA [A53U C71A], for which, in data set [1], the “self-cleavage kobs at 40 uM GlcN6P” value was found to be 0.000169 ± 1.6e-05 s⁻¹. In addition, the “self-cleavage kobs at 160 uM GlcN6P” value in data set [5] worked out at 0.000145 ± 3.8e-05 s⁻¹. Further, in data set [2], the “self-cleavage kobs at 640 uM GlcN6P” value was 0.00145 ± 0.00029 s⁻¹. The “self-cleavage kobs at 10000 uM GlcN6P” value in data set [4] was determined as 0.00487 ± 0.00058 s⁻¹.
AUAAACGCGCCAGAACUACAGAAAUGUAGUUGACGAGGGGAAGGUAUAUCGAAUUUUCGGCGGGUGCCUCCAAA [A6C A39G G41A U46A A64G]: in data set [1], the “self-cleavage kobs at 40 uM GlcN6P” value was less than 1e-05 s⁻¹. Further, the “self-cleavage kobs at 10000 uM GlcN6P” value in data set [4] was less than 1e-05 s⁻¹.
With AUAAAAUCGCCAGAACUACAGAAAUGUAGUUGGCGAGGAGGAGGUUUAUCGAAUAUUCGGCGGAUGCCUCCAAA [G7U A33G U55A], in data set [1], the “self-cleavage kobs at 40 uM GlcN6P” value was less than 1e-05 s⁻¹. Also, the “self-cleavage kobs at 10000 uM GlcN6P” value in data set [4] was less than 1e-05 s⁻¹.
As for AUAAAAGGGGUAGAACUACAGAAAUGUAGUUGGCGAGGAGGAGGUUCAUCGAAUUUUCGGCGGAUGCCUAAAAA [C8G C10G C11U A33G U47C C70A C71A], the “self-cleavage kobs at 40 uM GlcN6P” value in data set [1] is less than 1e-05 s⁻¹.
Same read-out and setting: for AUAAAAGCGCCAGAACUACAGAAAUGUAGUUGACGAGGACGAGGUUAAUCGAAUUUUCGGUGGAUGCCUCCAAA [G40C U47A C61U] the value was less than 1e-05 s⁻¹.
Take AUAAAAGCGCCAGAACUACAGAAAUGUAGUUGACGAGAAGGAGGUUUAUCGAAUUUGCGGCGGAUGCCUCCAAA [G38A U57G]: the “self-cleavage kobs at 40 uM GlcN6P” value in data set [1] is less than 1e-05 s⁻¹. For the same variant, in data set [2], the “self-cleavage kobs at 640 uM GlcN6P” value is less than 1e-05 s⁻¹. The “self-cleavage kobs at 2500 uM GlcN6P” value in data set [3] is less than 1e-05 s⁻¹. In addition, the “self-cleavage kobs at 10000 uM GlcN6P” value in data set [4] is less than 1e-05 s⁻¹.
AUAAAAGCGCCAGAACUACAGAAAUGUAGAUGACGAGGAGGAGUUUUAUCGAAUUUUCGGCGGAUGCCUCCAAA [U30A G44U]: in data set [1], the “self-cleavage kobs at 40 uM GlcN6P” value was less than 1e-05 s⁻¹.
As to AUAAAAGCGCCAGAACUACAGAAAUGUAGUUGACGAGGAGGAGGUUUAUGGAAUUUUCGGAGGUUGCCUCCAAA [C50G C61A A64U], the “self-cleavage kobs at 40 uM GlcN6P” value in data set [1] stood at 9.82e-05 ± 1.8e-05 s⁻¹. In data set [4], the “self-cleavage kobs at 10000 uM GlcN6P” value stood at 0.000113 ± 1.8e-05 s⁻¹.
As to AUAAAAGCGCCAGAACUACAGAAAUGUAGUUGACGAGGAGGAGAUUUAUCGAAUUUUCGGCGGAUGCGUCCAAA [G44A C68G], the “self-cleavage kobs at 40 uM GlcN6P” value in data set [1] was less than 1e-05 s⁻¹. Further, the “self-cleavage kobs at 160 uM GlcN6P” value in data set [5] is less than 1e-05 s⁻¹. Also, the “self-cleavage kobs at 640 uM GlcN6P” value in data set [2] is less than 1e-05 s⁻¹. Besides, the “self-cleavage kobs at 2500 uM GlcN6P” value in data set [3] is less than 1e-05 s⁻¹. Besides, the “self-cleavage kobs at 10000 uM GlcN6P” value in data set [4] is less than 1e-05 s⁻¹.
With AUAAAAUCGCCAGAACUACAGAAAUGUAGUUGACGAGGAGGAGGUUUAUGGAAUUUUCGGCGGAUGCGUCCAAA [G7U C50G C68G], the “self-cleavage kobs at 40 uM GlcN6P” value in data set [1] was determined as 0.000115 ± 2e-05 s⁻¹. In addition, in data set [5], the “self-cleavage kobs at 160 uM GlcN6P” value came out at 0.000493 ± 0.00019 s⁻¹. Also, the “self-cleavage kobs at 2500 uM GlcN6P” value in data set [3] amounted to 0.000185 ± 6.6e-05 s⁻¹. For the same variant, the “self-cleavage kobs at 10000 uM GlcN6P” value in data set [4] worked out at 0.000186 ± 3.4e-05 s⁻¹.
Consider AUAAAAGCGCCAGAACUACAGAAAUGUAGUUGACGACGAGUAGGUUUAUCGAAGUUUCGGCGGAUGCCUCCAAA [G37C G41U U54G], for which the “self-cleavage kobs at 40 uM GlcN6P” value in data set [1] was less than 1e-05 s⁻¹.
Consider AUAAAAGCGCCAGAACUACAGAAAUGUAGUUGACGAGGAGGAGGUUUAUCGAAUUUUCGGCAGAUUCCUCCAAA [G62A G66U], for which, in data set [1], the “self-cleavage kobs at 40 uM GlcN6P” value was less than 1e-05 s⁻¹. Moreover, the “self-cleavage kobs at 640 uM GlcN6P” value in data set [2] was less than 1e-05 s⁻¹. Also, in data set [3], the “self-cleavage kobs at 2500 uM GlcN6P” value is less than 1e-05 s⁻¹. Besides, the “self-cleavage kobs at 10000 uM GlcN6P” value in data set [4] was less than 1e-05 s⁻¹.
Consider AUAAAAGCGCCAGAACUACAGAAAUGUAGUUGUCGAGGAGGAGGUUUUUCGAAUUUUCGGCGGAUGCCUCCAAA [A33U A48U], for which, in data set [1], the “self-cleavage kobs at 40 uM GlcN6P” value is less than 1e-05 s⁻¹. In data set [5], the “self-cleavage kobs at 160 uM GlcN6P” value was less than 1e-05 s⁻¹. Moreover, the “self-cleavage kobs at 640 uM GlcN6P” value in data set [2] was less than 1e-05 s⁻¹. The “self-cleavage kobs at 10000 uM GlcN6P” value in data set [4] was less than 1e-05 s⁻¹.
AUAAAAGCGCCAGAACUACAGAAAUGUAGUUGACGAGGAGGAGGUUUCUCGGAUUUUCGGCGGAUGCCUCCAAA [A48C A52G]: the “self-cleavage kobs at 40 uM GlcN6P” value in data set [1] is less than 1e-05 s⁻¹. The “self-cleavage kobs at 160 uM GlcN6P” value in data set [5] was less than 1e-05 s⁻¹. Moreover, the “self-cleavage kobs at 640 uM GlcN6P” value in data set [2] was less than 1e-05 s⁻¹.
Turning to AUAAAAGCGCCAGAACUACAGAAAUGUAGUUGACGACGAGGAGGGUUAUCGAAUUUUCGGCGGAUGCCUCCAAA [G37C U45G], the “self-cleavage kobs at 40 uM GlcN6P” value in data set [1] is less than 1e-05 s⁻¹. The “self-cleavage kobs at 160 uM GlcN6P” value in data set [5] is less than 1e-05 s⁻¹. In data set [2], the “self-cleavage kobs at 640 uM GlcN6P” value was less than 1e-05 s⁻¹.
Take AUAAAAUCGCCAGAACUACAGAAAUGUAGUUUACGAGGAGGAGGUUUAUCGAAUUUUCGGCGGAUGCCUCCAAA [G7U G32U]: the “self-cleavage kobs at 40 uM GlcN6P” value in data set [1] was less than 1e-05 s⁻¹. The “self-cleavage kobs at 160 uM GlcN6P” value in data set [5] is less than 1e-05 s⁻¹. Besides, in data set [2], the “self-cleavage kobs at 640 uM GlcN6P” value is less than 1e-05 s⁻¹. In addition, the “self-cleavage kobs at 2500 uM GlcN6P” value in data set [3] is less than 1e-05 s⁻¹. Besides, the “self-cleavage kobs at 10000 uM GlcN6P” value in data set [4] was less than 1e-05 s⁻¹.
Turning to AUAAAGGCGCCAGAACUACAGAAAUGUAGUUGACGAGGAGGAGGUUUAUCGAAUUUUCGGCGGACGCCUCCAAA [A6G U65C], the “self-cleavage kobs at 40 uM GlcN6P” value in data set [1] was less than 1e-05 s⁻¹. Also, in data set [5], the “self-cleavage kobs at 160 uM GlcN6P” value is less than 1e-05 s⁻¹. In data set [2], the “self-cleavage kobs at 640 uM GlcN6P” value is less than 1e-05 s⁻¹. In addition, the “self-cleavage kobs at 2500 uM GlcN6P” value in data set [3] was less than 1e-05 s⁻¹. The “self-cleavage kobs at 10000 uM GlcN6P” value in data set [4] is less than 1e-05 s⁻¹.
